From US20210147531A1 (AstraZeneca / MedImmune, published 2021)
Values joined by “and” are separate entries in the source; they are usually repeats but may differ in a detail not shown here. Identical values can stand only once. Values belong to the binder of their own block, whether it stands above or below them.

Columns and labels:
human VEGF165 [1] = molecular target: T1, human VEGF165 (human, UniProt P15692-4 27-191); test: capture ELISA, Fab on anti-Fd, biotinylated VEGF165
T1 construct: the isoform is VEGF165; also called huVEGF; recombinant VEGF165
Protocol: (§1) Briefly, this capture ELISA involved coating individual wells of a 96-well Maxisorp Immunoplate with approximately 50 ng of a sheep anti-human Fd antibody (Biodesign International, ME) in a carbonate buffer at pH 8.5 overnight at 4° C. The next day, the plate was blocked with 3% BSA in PBS buffer for 1 hour at room temperature. Fab supernatant was then added to the plate and incubated at room temperature for 1 hour. After washing, the biotinylated VEGF165 protein was added to the well and the mixture was incubated for 1.5 hours at room temperature. This was followed by incubation with neutravidin-horseradish peroxydase (HRP) conjugate (Pierce, Ill.) for approximately 40 minutes at room temperature. HRP activity was detected with tetra-methyl-benzidine (TMB) substrate and the reaction quenched with 0.2 M H2SO4. Plates were read at 450 nm.
(§2) The Fab concentration was determined by comparing the ELISA signals with the signals generated by the reference Fab.

mouse VEGF164 [2] = molecular target: T2, mouse VEGF164 (mouse, UniProt Q00731-2 27-190); test: ELISA on murine VEGF164 (Example 7), O.D. 450 nm against antibody concentration, 4-parameter fit
T2 construct: also called mVEGF164; murine VEGF164
T2 sequence (looked up): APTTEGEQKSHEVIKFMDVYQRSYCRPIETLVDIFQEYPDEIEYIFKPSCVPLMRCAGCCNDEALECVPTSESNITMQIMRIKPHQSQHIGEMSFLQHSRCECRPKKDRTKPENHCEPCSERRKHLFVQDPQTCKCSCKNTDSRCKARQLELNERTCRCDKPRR
Protocol: (§3) EC50 values were determined using non-linear regression analysis (log dose response, 4-parameter fit curves) in GraphPad Prism, version 5.01 (San Diego, Calif.).

human VEGF121 = molecular target: T3, human VEGF121 (human, UniProt P15692-9 27-147); test: ELISA on human VEGF121 (Example 8), OD 450 nm against antibody concentration, 4-parameter fit
T3 construct: the isoform is VEGF121
T3 sequence (looked up): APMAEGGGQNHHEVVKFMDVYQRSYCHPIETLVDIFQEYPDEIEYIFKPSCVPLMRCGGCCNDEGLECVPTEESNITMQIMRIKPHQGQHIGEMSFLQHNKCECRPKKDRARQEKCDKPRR
Protocol: as §3

human VEGF165 [3] = molecular target: T1, human VEGF165; test: KinExA, IgG in solution, huVEGF165-coated beads
Protocol: Coated beads were then separated (spin) from unreacted huVEGF protein solution, and blocked with 1M Tris, pH 8, containing BSA at 10 mg/mL), for approximately 15 minutes at room temperature. After this, the bead slurry was spun to remove the blocking solution, and then the block step was repeated for approximately 2 hours using fresh block buffer, and stored at 4° C. until used. Prior to use, the huVEGF-coated beads were transferred to a bead vial, resuspended in approximately 27 mLs of instrument buffer (10 mM HEPES+300 mM NaCl+5 mM CaCl₂+0.05% P20+0.02% NaN₃, pH8), and affixed to the KinExA instrument. […] These concentrations of mAbs were chosen to allow each KD measurement to be made under both receptor- and KD-controlled conditions, leading to more rigorous estimations of reagent activity and affinity, respectively. […] Two-fold serial dilutions of huVEGF protein were then titrated across 9 of the tubes in each mAb series, followed by two additional 10-fold-dilutions, leaving one tube as the mAb-only, “zero” control. […] Based on theory curve simulations available through the vendor software (Sapidyne Instruments, Boise, Idaho), the mixtures were incubated 1-4 days at room temperature to allow binding to reach equilibrium. At the end of this time, signal-testing experiments were conducted to determine the appropriate run conditions for each set of measurements.

mouse VEGF164 [4] = molecular target: T2, mouse VEGF164; test: ELISA, coated VEGF, IgG, anti-human-Fc-HRP
Protocol: (§4) The 96-well microtiter plates (Corning) were coated with 50 μl/well of human and mouse VEGF165 or VEGF121 at a concentration of 5 μg/ml in PBS at 4° C. overnight. After being washed three times with PBS containing 0.1% Tween-20 (PBST), the wells were blocked with blocking buffer (4% skimmed milk in PBS). After 1 h incubation at room temperature, the plates were washed with PBST and a 2-fold serial dilution of the antibodies (starting from 8 nM) in blocking buffer were added and incubated for 1 hour at room temperature. The antibody solution was removed by washing with PBST followed by 1 hour incubation at room temperature with a 1:3000 dilution of an anti-human-Fc-HRP antibody (Thermo Scientific) prepared in PBST. Binding was visualized with the addition of 50 μL of SureBlue Reserve TMB substrate (KPL) for 5 minutes at room temperature and the reaction was stopped by adding 50 μL of TMB Stop Solution (KPL). The absorbance at 450 nm was measured using a microtiter plate reader. The data were analyzed using Prism 5 software (GraphPad).

human VEGF165 [5] = molecular target: T1, human VEGF165; test: ELISA, coated VEGF, IgG, anti-human-Fc-HRP
Protocol: as §4

human VEGF165 [6] = molecular target: T1, human VEGF165; test: VEGF165 ELISA of purified IgGs, OD450 against ug/ml
human VEGF165 [7] = molecular target: T1, human VEGF165; test: ELISA of Fabs at normalised concentrations on VEGF165 (Example 5), OD450 against Fab ug/ml
Protocol: as §1, §2

- fold improvement in EC50 compared to germline E06 as Fabs (human VEGF165 [1]): > 10 fold
B1: D04 Fab (Fab, V domains shown)
VH: EVQLLESGGGLVQPGGSLRLSCAASGFTFSWYEMYWVRQAPGKGLEWVSSISPSGGWTMYADSVKGRFTISRDNSKNTLYLQMNSLRAEDTAVYYCATPLYSSDGLSAGDIWGQGTMVTVSS
VL: EIVLTQSPATLSLSPGERATLSCRASQSVHSSYLAWYQQKPGQAPRLLIYGASSRATGIPDRFSGSGSGTDFTLTISRLEPEDFAVYYCQQSYSTPSFGQGTRLEIT
notes: Point mutant of M4 tested as Fab; Fab constant parts not specified

- EC50 (mouse VEGF164 [2]): 0.046 nM
- EC50 (human VEGF121): 4.97 nM
- FoldΔ KD vs. EO6-wt (human VEGF165 [3]): 11 fold
- Kd (human VEGF165 [3]): 0.22 nM
B2: J05 IgG (antibody, V domains shown)
VH: EVQLLESGGGLVQPGGSLRLSCAASGFTFSWYEMYWVRQAPGKGLEWVSSISPSGGWTMYADSVKGRFTISRDNSKNTLYLQMNSLRAEDTAVYYCATPLYSSDGLSAGDIWGQGTMVTVSS
VL: EIVLTQSPATLSLSPGERATLSCRASQSVSSSYLAWYQQKPGQAPRLLIYGASSRATGIPDRFSGSGSGTDFTLTISRLEPEDFAVYYCQQSYRTPSFGQGTRLEITR

- EC50 (mouse VEGF164 [2]): 0.03 nM
- EC50 (mouse VEGF164 [4]): 0.049 nM
- EC50 (human VEGF165 [5]): 0.048 nM
- EC50 (read off the curve) (human VEGF165 [6]): ~0.07 µg/mL and ~0.06 µg/mL
- Kd (human VEGF165 [3]): 2.52 nM
B3: E06 full length IgG (antibody, V domains shown)
VH: EVQLLESGGGLVQPGGSLRLSCAASGFTFSWYEMYWVRQAPGKGLEWVSSISPSGGWTMYADSVKGRFTISRDNSKNTLYLQMNSLRAEDTAVYYCATPLYSSDGLSAGDIWGQGTMVTVSS
VL: DIQMTQSPATLSLSPGERATLSCRASQSVSSSYLAWYQQKPGQAPRLLIYGASSRATGIPDRFSGSGSGTDFTLTISRLEPEDFATYYCQQSYSTPSFGQGTRLEITR
notes: also called antibody E06; Wt (E06)

- fold improvement in EC50 compared to germline E06 as Fabs (human VEGF165 [1]): > 10 fold
B4: I20 Fab (Fab, V domains shown)
VH: EVQLLESGGGLVQPGGSLRLSCAASGFTFSWYEMYWVRQAPGKGLEWVSSISPSGGWTMYADSVKGRFTISRDNSKNTLYLQMNSLRAEDTAVYYCATPLYSSDGLSAGDIWGQGTMVTVSS
VL: EIVLTQSPATLSLSPGERATLSCRASQSVSSSYLAWYQQKPGQAPRLLIYGASSRATGIPDRFSGSGSGTDFTLTISRLEPEDFAVYYCQQDYSTPSFGQGTRLEIT
notes: as for B1

- binding result (human VEGF165 [7]): binds
B5: E06 germline M4 Fab (Fab, V domains shown)
VH: EVQLLESGGGLVQPGGSLRLSCAASGFTFSWYEMYWVRQAPGKGLEWVSSISPSGGWTMYADSVKGRFTISRDNSKNTLYLQMNSLRAEDTAVYYCATPLYSSDGLSAGDIWGQGTMVTVSS
VL: EIVLTQSPATLSLSPGERATLSCRASQSVSSSYLAWYQQKPGQAPRLLIYGASSRATGIPDRFSGSGSGTDFTLTISRLEPEDFAVYYCQQSYSTPSFGQGTRLEIT
notes: Fab; D1E/Q3V/M4L/T86V in the VL against E06; Fab constant parts not specified; also called germline clone M4; germline E06

- fold improvement in EC50 compared to germline E06 as Fabs (human VEGF165 [1]): > 10 fold
- fold improvement of binding over E06 (human VEGF165 [1]): ~25 fold
B6: J05 Fab (Fab, V domains shown)
VH: EVQLLESGGGLVQPGGSLRLSCAASGFTFSWYEMYWVRQAPGKGLEWVSSISPSGGWTMYADSVKGRFTISRDNSKNTLYLQMNSLRAEDTAVYYCATPLYSSDGLSAGDIWGQGTMVTVSS
VL: EIVLTQSPATLSLSPGERATLSCRASQSVSSSYLAWYQQKPGQAPRLLIYGASSRATGIPDRFSGSGSGTDFTLTISRLEPEDFAVYYCQQSYRTPSFGQGTRLEIT
notes: Point mutant (VL S94R) of M4 tested as Fab; Fab constant parts not specified; also called point mutant J05

- EC50 (mouse VEGF164 [2]): 0.043 nM
- EC50 (human VEGF121): 0.017 nM
- EC50 (read off the curve) (human VEGF165 [6]): ~0.1 µg/mL
B7: H1DR IgG (antibody, V domains shown)
VH: EVQLLESGGGLVQPGGSLRLSCAASGFTFSWYEMYWVRQAPGKGLEWVSSISPSGGWTMYADSVKGRFTISRDNSKNTLYLQMNSLRAEDTAVYYCATPLYSSDGLSAGDIWGQGTMVTVSS
VL: EIVLTQSPATLSLSPGERATLSCRASQSVHSSYLAWYQQKPGQAPRLLIYGASSRATGIPDRFSGSGSGTDFTLTISRLEPEDFAVYYCQQDYRTPSFGQGTRLEITR
